Target: cytochrome c
Assay: SEC

stoichiometry N: 2
Substance: cytochrome c (natural protein)

— publication PMC2173478
